Laboratory results published in patent publication US20200339700A1 (Bristol-Myers Squibb, published 2020).

Legend:
human CD40 [1] = biological target: T1, human CD40 (human, UniProt P25942 21-193); assay: ELISA; first screen of the VL/VH pairs (Table 4), head in nM
T1 construct: also called huCD40; TNFRSF5

human CD40 [2] = biological target: T1, human CD40; assay: ELISA; further experiments (Table 6 ELISA), reference value in the text
Protocol: (§1) An ELISA was performed to confirm that the improved antibodies retained affinity for CD40.

human CD40 [3] = biological target: T1, human CD40; assay: ELISA
human CD40 [4] = biological target: T1, human CD40; assay: ELISA; remark: listed apart in the source
Protocol: as §1

human CD40 [5] = biological target: T1, human CD40; assay: antigen binding (method not named; ELISA in the rest of Example 2)
human CD40 [6] = biological target: T1, human CD40; assay: ELISA; further experiments (Table 6), 4 day titer
Protocol: as §1

T1 sequence (P25942 21-193 limits assumed): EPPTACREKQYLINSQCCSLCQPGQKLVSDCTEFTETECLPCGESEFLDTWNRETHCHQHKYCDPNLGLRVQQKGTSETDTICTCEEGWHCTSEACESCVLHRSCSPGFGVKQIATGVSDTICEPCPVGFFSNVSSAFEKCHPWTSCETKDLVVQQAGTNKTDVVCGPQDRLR

Kd (human CD40 [3]) [nM] | Kapp (human CD40 [5]) [nM] | Binder | further results
> 100 |  | 12D6-24 variant L3H1 (antibody, human IgG1, V domains shown) VH: QVQLVQSGAEVKKPGASVKVSCKASGYTFTGYNMNWVRQAPGQGLEWMGNIDPYYGNTNYNQKFKGRVTMTTDTSTSTAYMELRSLRSDDTAVYYCARLGLQLYALDYWGQGTTVTVSS VL: EIVMTQSPATLSVSPGERATLSCRSSQSLVHSNANTYQQKPGQAPRLLIYKLTNRFFGIPDRFSGSGSGTDFTLTISRVEAEDFAVYYCQQSIHVPWTFGQGTKVEIK | 
 | 0.25 | 12D6-24 variant L4H2 (antibody, human IgG1, V domains shown) VH: QVQLVQSGAEVKKPGSSVKVSCKASGYTFTGYNMNWVRQAPGQGLEWMGNIDPYYGNTNYNQKFKGKTTLTADKSTSTAYMELSSLRSDDTAVYYCARLGLQLYALDYWGQGTLVTVSS VL: DIVLTQSPDSLAVSLGERATINCRASQSLVHSNANTYLHWYQQKPGQPPKLLIYKLTNRFFGVPDRFSGSGSGTDFTLTISSLQAEDVAVYYCQQSIHVPWTFGQGTKLEIK | Kd (human CD40 [6]): 0.25 nM; Kd (human CD40 [1]): 0.2 nM
 | 0.25 | 12D6-24-L4H1 (antibody, human IgG1, V domains shown) VH: QVQLVQSGAEVKKPGASVKVSCKASGYTFTGYNMNWVRQAPGQGLEWMGNIDPYYGNTNYNQKFKGRVTMTTDTSTSTAYMELRSLRSDDTAVYYCARLGLQLYALDYWGQGTTVTVSS VL: DIVLTQSPDSLAVSLGERATINCRASQSLVHSNANTYLHWYQQKPGQPPKLLIYKLTNRFFGVPDRFSGSGSGTDFTLTISSLQAEDVAVYYCQQSIHVPWTFGQGTKLEIK | Kd (human CD40 [6]): 0.25 nM; Kd (human CD40 [1]): 0.2 nM
1.6 |  | 12D6-24 variant L5H2 (antibody, human IgG1, V domains shown) VH: QVQLVQSGAEVKKPGSSVKVSCKASGYTFTGYNMNWVRQAPGQGLEWMGNIDPYYGNTNYNQKFKGKTTLTADKSTSTAYMELSSLRSDDTAVYYCARLGLQLYALDYWGQGTLVTVSS VL: EIVMTQSPATLSVSPGERATLSCRASQSVSSNLAWYLHWYLQKPGQAPRLLIYKLTNRFFGIPARFSGSGSGTDFTLTISRVEAEDFAVYYCQQSIHVPWTFGQGTKVEIK | 

The next lines start with the binder.

Binder | Kd (human CD40 [3]) [nM] | Kapp (human CD40 [5]) [nM] | further results
antibody 12D6-24 (antibody, human IgG1, kappa, V domains shown, also called mAb 12D6-24; unmodified 12D6-24) VH: QVQLVQSGAEVKKPGASVKVSCKASGYTFTGYNMNWVRQAPGQGLEWMGNIDPYYGNTNYNQKFKGRVTMTTDTSTSTAYMELRSLRSDDTAVYYCARLGLQLYALDYWGQGTTVTVSS VL: DIVMTQTPLSLPVTPGEPASISCRSSQSLVHSNANTYLHWYLQKPGQSPQLLIYKLTNRFFGVPDRFSGSGSGTDFTLKISRVEAEDVGVYYCSQSIHVPWTFGGGTKVEIKR |  |  | Kd (human CD40 [1]): 0.2 nM; Kd (human CD40 [2]): 0.24 nM
12D6-24 variant L1H2 (antibody, human IgG1, V domains shown) VH: QVQLVQSGAEVKKPGSSVKVSCKASGYTFTGYNMNWVRQAPGQGLEWMGNIDPYYGNTNYNQKFKGKTTLTADKSTSTAYMELSSLRSDDTAVYYCARLGLQLYALDYWGQGTLVTVSS VL: DIVMTQTPLSLPVTPGEPASISCRSSQSLVHSNANTYLHWYLQKPGQSPQLLIYKLTNRFFGVPDRFSGSGSGTDFTLKISRVEAEDVGVYYCSQSIHVPWTFGGGTKVEIK | 0.6 |  | 
12D6-24-L4H4 (antibody, human IgG1, V domains shown) VH: QVQLVQSGAEVKKPGASVKVSCKASGYTFTGYNMNWVRQAPGQGLEWMGNIDPYYGNTNYNQKFKGRTTLTADTSTSTAYMELSSLRSDDTAVYYCARLGLQLYALDYWGQGTLVTVSS VL: DIVLTQSPDSLAVSLGERATINCRASQSLVHSNANTYLHWYQQKPGQPPKLLIYKLTNRFFGVPDRFSGSGSGTDFTLTISSLQAEDVAVYYCQQSIHVPWTFGQGTKLEIK |  | 0.24 | Kd (human CD40 [4]): 240 nM
12D6-24 variant L5H1 (antibody, human IgG1, V domains shown) VH: QVQLVQSGAEVKKPGASVKVSCKASGYTFTGYNMNWVRQAPGQGLEWMGNIDPYYGNTNYNQKFKGRVTMTTDTSTSTAYMELRSLRSDDTAVYYCARLGLQLYALDYWGQGTTVTVSS VL: EIVMTQSPATLSVSPGERATLSCRASQSVSSNLAWYLHWYLQKPGQAPRLLIYKLTNRFFGIPARFSGSGSGTDFTLTISRVEAEDFAVYYCQQSIHVPWTFGQGTKVEIK | 1.6 |  | 
12D6-24 variant L2H1 (antibody, human IgG1, V domains shown) VH: QVQLVQSGAEVKKPGASVKVSCKASGYTFTGYNMNWVRQAPGQGLEWMGNIDPYYGNTNYNQKFKGRVTMTTDTSTSTAYMELRSLRSDDTAVYYCARLGLQLYALDYWGQGTTVTVSS VL: EIVMTQSPATLSVSPGERATLSCRASQSVSSNLAWYQQKPGQAPRLLIYKLTNRFFGIPARFSGSGSGTDFTLTISRVEAEDFAVYYCQQSIHVPWTFGQGTKVEIK | > 100 |  | 
12D6-24 variant L1H4 (antibody, human IgG1, V domains shown) VH: QVQLVQSGAEVKKPGASVKVSCKASGYTFTGYNMNWVRQAPGQGLEWMGNIDPYYGNTNYNQKFKGRTTLTADTSTSTAYMELSSLRSDDTAVYYCARLGLQLYALDYWGQGTLVTVSS VL: DIVMTQTPLSLPVTPGEPASISCRSSQSLVHSNANTYLHWYLQKPGQSPQLLIYKLTNRFFGVPDRFSGSGSGTDFTLKISRVEAEDVGVYYCSQSIHVPWTFGGGTKVEIK |  | 0.22 | Kd (human CD40 [4]): 230 nM
12D6-24 variant L2H2 (antibody, human IgG1, V domains shown) VH: QVQLVQSGAEVKKPGSSVKVSCKASGYTFTGYNMNWVRQAPGQGLEWMGNIDPYYGNTNYNQKFKGKTTLTADKSTSTAYMELSSLRSDDTAVYYCARLGLQLYALDYWGQGTLVTVSS VL: EIVMTQSPATLSVSPGERATLSCRASQSVSSNLAWYQQKPGQAPRLLIYKLTNRFFGIPARFSGSGSGTDFTLTISRVEAEDFAVYYCQQSIHVPWTFGQGTKVEIK | > 100 |  | 
